{"source": "patent US20230140293A1", "key": {"[1]": {"biological_target": "CH505 M5 gp120 (HIV-1)", "assay": "ELISA, gp120 on plate"}, "[2]": {"biological_target": "CH505 w030.28 gp120 (HIV-1)", "assay": "ELISA, gp120 on plate"}, "[3]": {"biological_target": "CH505 transmitted/founder (TF) gp120 (HIV-1)", "assay": "ELISA, gp120 on plate"}, "[4]": {"biological_target": "CH505 M11 gp120 (HIV-1)", "assay": "ELISA, gp120 on plate"}, "[5]": {"biological_target": "CH505 w020.14 gp120 (HIV-1)", "assay": "ELISA, gp120 on plate"}, "[6]": {"biological_target": "CH0505TF.gly3.197 Env, Env-pseudotyped virus produced in 293T cells (HIV-1)", "assay": "cell-based or functional assay"}, "[7]": {"biological_target": "HIV-1 Env 426c.SM (N276D), Env-pseudotyped virus produced in 293T cells (HIV-1 clade C strain 426c)", "assay": "cell-based or functional assay"}, "[8]": {"biological_target": "CH0505TF.gly3.461 Env, pseudotyped virus produced in 293S GnTI- cells (HIV-1)", "assay": "cell-based or functional assay"}, "[9]": {"biological_target": "HIV-1 clade C strain 426c Env on Env-pseudotyped virus produced in 293T cells (HIV-1)", "assay": "cell-based or functional assay"}, "[10]": {"biological_target": "CH0505TF.G458Y Env, pseudotyped virus produced in 293S GnTI- cells (HIV-1)", "assay": "cell-based or functional assay"}, "[11]": {"biological_target": "CH0505TF.gly3.461 Env, Env-pseudotyped virus produced in 293T cells (HIV-1)", "assay": "cell-based or functional assay"}, "[12]": {"biological_target": "HIV-1 Env 426c.DM (N460D.N463D), Env-pseudotyped virus produced in 293T cells (HIV-1 clade C strain 426c)", "assay": "cell-based or functional assay"}, "[13]": {"biological_target": "HIV-1 Env 426c, Env-pseudotyped virus produced in 293T cells (HIV-1 clade C strain 426c)", "assay": "cell-based or functional assay"}, "[14]": {"biological_target": "CH0505TF.gly3.276 Env, pseudotyped virus produced in 293S GnTI- cells (HIV-1)", "assay": "cell-based or functional assay"}, "[15]": {"biological_target": "CH0505.w4.3 Env, Env-pseudotyped virus produced in 293T cells (HIV-1)", "assay": "cell-based or functional assay"}, "[16]": {"biological_target": "CH0505TF.gly3.197 Env, pseudotyped virus produced in 293S GnTI- cells (HIV-1)", "assay": "cell-based or functional assay"}, "[17]": {"biological_target": "HIV-1 426c.TM (N276D/N460D/N463D) Env on Env-pseudotyped virus produced in 293s/GnTI-/- cells (Man5-enrichment) (HIV-1)", "assay": "cell-based or functional assay"}, "[18]": {"biological_target": "HIV-1 Env 426c.DM (N460D.N463D), Env-pseudotyped virus produced in 293S GnTI- cells (Man5-enriched) (HIV-1 clade C strain 426c)", "assay": "cell-based or functional assay"}, "[19]": {"biological_target": "CH0505TF.gly4 Env, pseudotyped virus produced in 293S GnTI- cells (HIV-1)", "assay": "cell-based or functional assay"}, "[20]": {"biological_target": "CH0505TF.gly4 Env, Env-pseudotyped virus produced in 293T cells (HIV-1)", "assay": "cell-based or functional assay"}, "[21]": {"biological_target": "HIV-1 Env 426c.SM (N276D), Env-pseudotyped virus produced in 293S GnTI- cells (Man5-enriched) (HIV-1 clade C strain 426c)", "assay": "cell-based or functional assay"}, "[22]": {"biological_target": "HIV-1 clade C strain 426c Env on Env-pseudotyped virus produced in 293s/GnTI-/- cells (Man5-enrichment) (HIV-1)", "assay": "cell-based or functional assay"}, "[23]": {"biological_target": "HIV-1 426c.SM (N276D) Env on Env-pseudotyped virus produced in 293s/GnTI-/- cells (Man5-enrichment) (HIV-1)", "assay": "cell-based or functional assay"}, "[24]": {"biological_target": "HIV-1 426c.DM (N460D/N463D) Env on Env-pseudotyped virus produced in 293T cells (HIV-1)", "assay": "cell-based or functional assay"}, "[25]": {"biological_target": "HIV-1 426c.TM (N276D/N460D/N463D) Env on Env-pseudotyped virus produced in 293T cells (HIV-1)", "assay": "cell-based or functional assay"}, "[26]": {"biological_target": "CH0505TF.gly3.276 Env, Env-pseudotyped virus produced in 293T cells (HIV-1)", "assay": "cell-based or functional assay"}, "[27]": {"biological_target": "HIV-1 Env 426c, Env-pseudotyped virus produced in 293S GnTI- cells (Man5-enriched) (HIV-1 clade C strain 426c)", "assay": "cell-based or functional assay"}, "[28]": {"biological_target": "HIV-1 Env 426c.TM4 (S278R.G471S.N460D.N463D), Env-pseudotyped virus produced in 293S GnTI- cells (Man5-enriched) (HIV-1 clade C strain 426c)", "assay": "cell-based or functional assay"}, "[29]": {"biological_target": "HIV-1 426c.SM (N276D) Env on Env-pseudotyped virus produced in 293T cells (HIV-1)", "assay": "cell-based or functional assay"}, "[30]": {"biological_target": "HIV-1 Env 426c.TM4 (S278R.G471S.N460D.N463D), Env-pseudotyped virus produced in 293T cells (HIV-1 clade C strain 426c)", "assay": "cell-based or functional assay"}, "[31]": {"biological_target": "HIV-1 426c.DM (N460D/N463D) Env on Env-pseudotyped virus produced in 293s/GnTI-/- cells (Man5-enrichment) (HIV-1)", "assay": "cell-based or functional assay"}, "[32]": {"biological_target": "CH0505TF Env, Env-pseudotyped virus produced in 293T cells (HIV-1)", "assay": "cell-based or functional assay"}, "[33]": {"biological_target": "CH0505TF Env, pseudotyped virus produced in 293S GnTI- cells (HIV-1)", "assay": "cell-based or functional assay"}, "[34]": {"biological_target": "HIV-1 Env 426c.TM (N276D.N460D.N463D), Env-pseudotyped virus produced in 293T cells (HIV-1 clade C strain 426c)", "assay": "cell-based or functional assay"}, "[35]": {"biological_target": "CH0505TF.G458Y Env, Env-pseudotyped virus produced in 293T cells (HIV-1)", "assay": "cell-based or functional assay"}, "[36]": {"biological_target": "HIV-1 Env 426c.TM (N276D.N460D.N463D), Env-pseudotyped virus produced in 293S GnTI- cells (Man5-enriched) (HIV-1 clade C strain 426c)", "assay": "cell-based or functional assay"}, "[37]": {"biological_target": "CH505 w078.15 gp120 (HIV-1)", "assay": "ELISA, gp120 on plate"}, "[38]": {"biological_target": "CH505 w053.16 gp120 (HIV-1)", "assay": "ELISA, gp120 on plate"}}}
{"substance": "CH103 lineage intermediate ancestor IA8 (antibody)", "values": [{"measurement": "log AUC", "setting": "[1]", "result": 0.6, "unit": "log AUC"}, {"measurement": "log AUC", "setting": "[2]", "result": 1.6, "unit": "log AUC"}, {"measurement": "log AUC", "setting": "[3]", "result": 5.5, "unit": "log AUC"}, {"measurement": "log AUC", "setting": "[4]", "result": 6.2, "unit": "log AUC"}, {"measurement": "log AUC", "setting": "[5]", "result": 3.4, "unit": "log AUC"}]}
{"substance": "IgG1b12 (antibody)", "values": [{"measurement": "IC50 (µg/ml) in TZM-bl", "setting": "[6]", "result": 0.68, "unit": "µg/mL"}, {"measurement": "IC50 (µg/ml) in TZM-bl", "setting": "[7]", "result": "> 25", "unit": "µg/mL"}, {"measurement": "IC50 (µg/ml) in TZM-bl", "setting": "[8]", "result": 0.02, "unit": "µg/mL"}, {"measurement": "ID50/IC50 in TZM-bl", "setting": "[9]", "result": "> 25", "unit": "µg/mL"}, {"measurement": "IC50 (µg/ml) in TZM-bl", "setting": "[10]", "result": 0.22, "unit": "µg/mL"}, {"measurement": "IC50 (µg/ml) in TZM-bl", "setting": "[11]", "result": 0.011, "unit": "µg/mL"}, {"measurement": "IC50 (µg/ml) in TZM-bl", "setting": "[12]", "result": "> 25", "unit": "µg/mL"}, {"measurement": "IC50 (µg/ml) in TZM-bl", "setting": "[13]", "result": "> 25", "unit": "µg/mL"}, {"measurement": "IC50 (µg/ml) in TZM-bl", "setting": "[14]", "result": 0.01, "unit": "µg/mL"}, {"measurement": "IC50 (µg/ml) in TZM-bl", "setting": "[15]", "result": "< 0.02", "unit": "µg/mL"}, {"measurement": "IC50 (µg/ml) in TZM-bl", "setting": "[16]", "result": 0.26, "unit": "µg/mL"}, {"measurement": "ID50/IC50 in TZM-bl", "setting": "[17]", "result": "> 25", "unit": "µg/mL"}, {"measurement": "IC50 (µg/ml) in TZM-bl", "setting": "[18]", "result": "> 25", "unit": "µg/mL"}, {"measurement": "IC50 (µg/ml) in TZM-bl", "setting": "[19]", "result": 0.001, "unit": "µg/mL"}, {"measurement": "IC50 (µg/ml) in TZM-bl", "setting": "[20]", "result": 0.004, "unit": "µg/mL"}, {"measurement": "IC50 (µg/ml) in TZM-bl", "setting": "[21]", "result": "> 25", "unit": "µg/mL"}, {"measurement": "ID50/IC50 in TZM-bl", "setting": "[22]", "result": "> 25", "unit": "µg/mL"}, {"measurement": "ID50/IC50 in TZM-bl", "setting": "[23]", "result": "> 25", "unit": "µg/mL"}, {"measurement": "ID50/IC50 in TZM-bl", "setting": "[24]", "result": "> 25", "unit": "µg/mL"}, {"measurement": "ID50/IC50 in TZM-bl", "setting": "[25]", "result": "> 25", "unit": "µg/mL"}, {"measurement": "IC50 (µg/ml) in TZM-bl", "setting": "[26]", "result": 0.007, "unit": "µg/mL"}, {"measurement": "IC50 (µg/ml) in TZM-bl", "setting": "[27]", "result": "> 25", "unit": "µg/mL"}, {"measurement": "IC50 (µg/ml) in TZM-bl", "setting": "[28]", "result": "> 25", "unit": "µg/mL"}, {"measurement": "ID50/IC50 in TZM-bl", "setting": "[29]", "result": "> 25", "unit": "µg/mL"}, {"measurement": "IC50 (µg/ml) in TZM-bl", "setting": "[30]", "result": "> 25", "unit": "µg/mL"}, {"measurement": "ID50/IC50 in TZM-bl", "setting": "[31]", "result": "> 25", "unit": "µg/mL"}, {"measurement": "IC50 (µg/ml) in TZM-bl", "setting": "[32]", "result": 0.98, "unit": "µg/mL"}, {"measurement": "IC50 (µg/ml) in TZM-bl", "setting": "[33]", "result": 0.61, "unit": "µg/mL"}, {"measurement": "IC50 (µg/ml) in TZM-bl", "setting": "[34]", "result": "> 25", "unit": "µg/mL"}, {"measurement": "IC50 (µg/ml) in TZM-bl", "setting": "[35]", "result": 0.1, "unit": "µg/mL"}, {"measurement": "IC50 (µg/ml) in TZM-bl", "setting": "[36]", "result": "> 25", "unit": "µg/mL"}]}
{"substance": "CH103 lineage intermediate ancestor IA6 (antibody)", "values": [{"measurement": "log AUC", "setting": "[1]", "result": 3.3, "unit": "log AUC"}, {"measurement": "log AUC", "setting": "[2]", "result": 6.3, "unit": "log AUC"}, {"measurement": "log AUC", "setting": "[3]", "result": 9.1, "unit": "log AUC"}, {"measurement": "log AUC", "setting": "[4]", "result": 10, "unit": "log AUC"}, {"measurement": "log AUC", "setting": "[5]", "result": 7.9, "unit": "log AUC"}, {"measurement": "log AUC", "setting": "[37]", "result": 1, "unit": "log AUC"}]}
{"substance": "CH103 lineage intermediate ancestor IA4 (antibody)", "values": [{"measurement": "log AUC", "setting": "[38]", "result": 0.2, "unit": "log AUC"}, {"measurement": "log AUC", "setting": "[1]", "result": 3.8, "unit": "log AUC"}, {"measurement": "log AUC", "setting": "[2]", "result": 6.5, "unit": "log AUC"}, {"measurement": "log AUC", "setting": "[3]", "result": 10.1, "unit": "log AUC"}, {"measurement": "log AUC", "setting": "[4]", "result": 10.5, "unit": "log AUC"}, {"measurement": "log AUC", "setting": "[5]", "result": 8.6, "unit": "log AUC"}, {"measurement": "log AUC", "setting": "[37]", "result": 1.3, "unit": "log AUC"}]}
